Test results as given in PMC4043723.

Experiments:
Assay in all cases: voltammetric sandwich aptasensor
[1] = target: prostate-specific antigen (PSA) (UniProt P07288 25-261)
horseradish peroxidase = horseradish peroxidase (horseradish, UniProt P00433 31-338)
thrombin = thrombin (UniProt P00734;P00734 328-363;364-622)

Measured: binding result

prostate-specific antigen (PSA), sequence (P07288 25-261): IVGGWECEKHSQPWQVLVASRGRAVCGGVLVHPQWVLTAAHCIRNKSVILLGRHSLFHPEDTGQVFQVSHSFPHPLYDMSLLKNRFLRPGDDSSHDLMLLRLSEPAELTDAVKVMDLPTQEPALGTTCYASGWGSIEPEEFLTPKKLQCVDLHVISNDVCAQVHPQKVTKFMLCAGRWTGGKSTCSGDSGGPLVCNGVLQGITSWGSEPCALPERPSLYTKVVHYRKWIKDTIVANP
horseradish peroxidase, sequence (P00433 31-338): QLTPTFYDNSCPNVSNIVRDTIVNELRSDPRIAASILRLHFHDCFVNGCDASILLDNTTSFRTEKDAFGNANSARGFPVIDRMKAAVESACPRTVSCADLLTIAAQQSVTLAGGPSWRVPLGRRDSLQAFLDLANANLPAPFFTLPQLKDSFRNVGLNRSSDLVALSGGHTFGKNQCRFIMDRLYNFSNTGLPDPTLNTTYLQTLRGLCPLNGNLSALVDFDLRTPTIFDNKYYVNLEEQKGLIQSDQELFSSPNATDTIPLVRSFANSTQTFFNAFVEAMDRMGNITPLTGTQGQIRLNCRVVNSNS

GATTGAAAGGTCTGTTTTTGGGGTTGGTTTGGGTCAATA (ssDNA, 5'-SH-(CH2)6) [anti-rHuEPO aptamer (39-base)]
no binding: all assays above
